The source of these data is PMC3171153.

Holding throughout (test): SPR; BIAcore T100; scFv-His10-CLAMP (150 nM) captured on ePDZ-b1 affinity clamp immobilised on a CM5 chip; purified SHC1 injected at increasing concentrations, 30 ul/min; PBS with 0.05% Tween 20; global fit, 1:1 interaction model
(In general: Surface plasmon resonance follows binding to a sensor surface in real time, without labels.)

The target in assay [1] is six of the eight chain-shuffled derivatives (positive in immunoprecipitation), as measured by SPR.
Assay [2] addresses anti-SHC1 scFv 72_1A10, His10-CLAMP-tagged.
Assay [3] concerns the target anti-SHC1 scFv 72_2B01, His10-CLAMP-tagged.

Sequence of anti-SHC1 scFv 72_1A10, His10-CLAMP-tagged (heavy, as listed by the source): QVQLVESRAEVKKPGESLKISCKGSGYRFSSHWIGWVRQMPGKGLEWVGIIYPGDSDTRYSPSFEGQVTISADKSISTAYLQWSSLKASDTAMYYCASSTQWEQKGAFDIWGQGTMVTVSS

B1: SHC1 SH2 domain (purified SHC1 antigen) (domain or fragment)
chain: WFHGKLSRREAEALLQLNGDFLVRESTTTPGQYVLTGLQSGQPKHLLLVDPEGVVRTKDHRFESVSHLISYHMDNHLPIISAGSELCLQQPV
The Kd is the concentration at which binding is half-saturated. Usually koff stands for a measure of how fast the partners let go of each other. Low readings indicate slow dissociation, high ones fast dissociation. In assay [1], B1 yielded a Kd of less than 60 nM and a koff of less than 0.1 s⁻¹. The molecule also yielded a Kd in assay [2] of 25 nM. In assay [3], this molecule gave a fold improvement in affinity over 58 E05 of 59 fold and a fold reduction in off-rate against 58 E05 of 3.2 fold.
